From patent US10772928B2, “Modulation and detection of a neuronal alternative splicing regulatory network for treatment and diagnosis of neurological disorders” (The Governing Council of the University of Toronto, priority 2014, dated 2020)

B1: Bcas2 (protein, UniProt Q9D287 2-225, looked up)
Pre-mRNA-splicing factor SPF27: AGTGLVAGEVVVDALPYFDQGYEAPGVREAAAALVEEETRRYRPTKNYLSYLTAPDYSAFETDIMRNEFERLAARQPIELLSMKRYELPAPSSGQKNDITAWQECVNNSMAQLEHQAVRIENLELMSQHGCNAWKVYNENLVHMIEHAQKELQKLRKHIQDLNWQRKNMQLTAGSKLREMESNWVSLVSKNYEIERTIVQLENEIYQIKQQHGEANKENIRQDF
B2: Sf3b2 (protein, UniProt Q3UJB0 1-878, looked up)
Splicing factor 3B subunit 2: MAAEHPEPPKGELQLPPPPPPGHYGAWAAQELQARLAEIGAPIQGSREELVERLQTYTRQTGIVLNRPVLRGEDGDKAAPPPMSAQLSGIPMPPPPMGLPPLQPPPPPPPPPPGLGLGFPMAHPPNLGPPPPLRVGEPVALSEEERLKLAQQQAALLMQQEERAKQAAVLMEQERQQEIAKMGTAVPRPPQDMGQLGVRTPLGPRVAAPVGPVVPTPTVLPMGAPVPRPRGPPPPPGDENREMDDPSVGPKIPQALEKILQLKESRQEEMNSQQEEEEMETDTRSSLGQSASETEEDTVSISKKEKNRKRRNRKKKKKPQRVRAASSESSGDREKDSGRSRGSDPPAADVEIEYVTEEPEIYEPNFIFFKRIFEAFKLTDDVKKEKEKEPEKLDKMESSAVPKKKGFEEEHKDSDDDSSDDEQEKKPEAPKLSKKKLRRMNRFTVAELKQLVARPDVVEMHDVTAQDPKLLVHLKATRNSVPVPRHWCFKRKYLQGKRGIEKPPFELPDFIKRTGIQEMREALQEKEEQKTMKSKMREKVRPKMGKIDIDYQKLHDAFFKWQTKPKLTIHGDLYYEGKEFETRLKEKKPGDLSDELRISLGMPVGPNAHKVPPPWLIAMQRYGPPPSYPNLKIPGLNSPIPESCSFGYHAGGWGKPPVDETGKPLYGDVFGTNAAEFQTKTEEEEIDRTPWGELEPSDEESSEEEEEEESDEDKPDETGFITPADSGLITPGGFSSVPAGMETPELIELRKKKIEEAMDGSETPQLFTVLPEKRTATVGGAMMGSTHIYDMSTVMSRKGPAPELQGVEVALAPEELELDPMAMTQKYEEHVREQQAQVEKEDFSDMVAEHAAKQKQKKRKAQPQDSRGGSKKYKEFKF
B3: Wbp11 (protein, UniProt Q923D5 1-641, looked up)
WW domain-binding protein 11: MGRRSTSSTKSGKFMNPTDQARKEARKRELKKNKKQRMMVRAAVLKMKDPKQIIRDMEKLDEMEFNPVQQPQLNEKVLKDKRKKLRETFERILRLYEKENPDIYKELRKLEVEYEQKRAQLSQYFDAVKNAQHVEVESIPLPDMPHAPSNILIQDIPLPGAQPPSILKKTSAYGPPARAVSILPLLGHGVPRLPPGRKPPGPPPGPPPPQVLQMYGRKVGFALDLPPRRRDEDMLYSPELAQRGHDDDMSSTSEDDGYPEDMDQDKHDDSTEDSDTDRSDAESDGDEFGHREDSERDNTEEKKSGLSVRFADMPGKSRKKKKNMKELTPLQAMMLRMAGQEIPEEGREVEEFSEEEDADDSDDSEAEKQSQKQHKDDGHSDSTAAASSQQQAPPQSAPASQIQAPPMPGPPPLGPPPAPPLRPPGPPTGLPPGPPPGAPPFLRPPGMPGIRGPLPRLLPPGPPPGRPPGPPPGPPPGLPPGPPPRGPPPRLPPPAPPGIPPPRPGMMRPPLVPPLGPAPPGLFPPAPLPNPGVLSAPPSLIQRPKADDASAATIEKKATATISAKPQITNPKAEVTRFVPTALRVRRENKGATAVPQRRSEDDSAVPVAKAAPRSGPSVAVSVQTKDDVYEAFMKEMEGLL
B4: Ddx6 (protein, UniProt P54823 1-483, looked up)
Probable ATP-dependent RNA …: MSTARTENPVIMGLSSQNGQLRGPVKASAGPGGGGTQPQPQLNQLKNTSTINNGTPQQAQSMAATIKPGDDWKKTLKLPPKDLRIKTSDVTSTKGNEFEDYCLKRELLMGIFEMGWEKPSPIQEESIPIALSGRDILARAKNGTGKSGAYLIPLLERLDLKKDNIQAMVIVPTRELALQVSQICIQVSKHMGGAKVMATTGGTNLRDDIMRLDDTVHVVIATPGRILDLIKKGVAKVDHVQMIVLDEADKLLSQDFVQIMEDIILTLPKNRQILLYSATFPLSVQKFMNSHLQKPYEINLMEELTLKGVTQYYAYVTERQKVHCLNTLFSRLQINQSIIFCNSSQRVELLAKKISQLGYSCFYIHAKMRQEHRNRVFHDFRNGLCRNLVCTDLFTRGIDIQAVNVVINFDFPKLAETYLHRIGRSGRFGHLGLAINLITYDDRFNLKSIEEQLGTEIKPIPSNIDKSLYVAEYHSEPAEDEKP
B5: Sf3a2 (protein, UniProt Q62203 1-475, looked up)
Splicing factor 3A subunit 2: MDFQHRPGGKTGSGGVASSSESNRDRRERLRQLALETIDINKDPYFMKNHLGSYECKLCLTLHNNEGSYLAHTQGKKHQTNLARRAAKEAKEAPAQPAPEQVKVEVKKFVKIGRPGYKVTKQRDTEMGQQSLLFQIDYPEIAEGIMPRHRFMSAYEQRIEPPDRRWQYLLMAAEPYETIAFKVPSREIDKAEGKFFFLQFHFKMEKPPAPPSLPAGPPGVKRPPPPLMNGLPPRPPLPDALPPPPPGGLPLPPMPPTGPAPSGPPGPPQMPPPAPGVHPPAPVVHPPTSGVHPPAPGVHPPAPVVHPPTSGVHPPAPGVHPPTPGVHPPAPGVHPPAPGVHPPAPGVHPPTPGVHPPAPGVHPPAPGVHPPAPGVHPPPSAGVHPQAPGVHPPAPAVHPQAPGVHPPAPGIHPQAPGVHPQPPPGVHPAAPGVHPQPPGVHPSNPGVHPAPMPPMLRPPLPSDGPGNMPPPPPGN

Target: T1, nSR100 (Mus musculus, UniProt Q8BKA3)
T1 construct: host or cells: mouse N2A cells
T1 sequence (Q8BKA3 1-608): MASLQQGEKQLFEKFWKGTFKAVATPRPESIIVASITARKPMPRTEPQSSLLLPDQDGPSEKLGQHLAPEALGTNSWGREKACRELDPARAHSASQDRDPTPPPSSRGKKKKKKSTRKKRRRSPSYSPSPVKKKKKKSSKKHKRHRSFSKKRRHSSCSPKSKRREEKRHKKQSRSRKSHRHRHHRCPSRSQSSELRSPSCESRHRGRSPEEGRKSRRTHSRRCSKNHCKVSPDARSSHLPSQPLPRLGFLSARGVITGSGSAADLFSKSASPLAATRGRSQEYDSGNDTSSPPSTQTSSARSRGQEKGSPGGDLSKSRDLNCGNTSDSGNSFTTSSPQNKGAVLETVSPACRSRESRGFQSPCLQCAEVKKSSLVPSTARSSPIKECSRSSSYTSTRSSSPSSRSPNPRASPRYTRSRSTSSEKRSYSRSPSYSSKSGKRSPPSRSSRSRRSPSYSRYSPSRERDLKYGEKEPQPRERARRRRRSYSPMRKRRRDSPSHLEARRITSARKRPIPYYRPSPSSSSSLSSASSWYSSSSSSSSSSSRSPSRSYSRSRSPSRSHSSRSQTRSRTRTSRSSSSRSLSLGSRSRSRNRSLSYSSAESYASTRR
Assay: AP-MS nSR100 interaction partners from mouse N2A cells (Table 5)
Format: binding
Settings: for AvgP (average of the SAINT scores) / MaxP (maximal SAINT score): bait Srrm4; for FoldChange between the prey Avg spectra of the bait and control purifications: bait Srrm4, 0.1 added to prevent division by 0; for AvgSpec (average number of spectra per replicate): bait Srrm4, 2 replicates; for Spectra (number of spectra for the prey in the purification of the bait): AP-MS; for SpecSum: bait Srrm4, sum of spectra over 2 replicates

[1] = bait Srrm4, biological replicate 1 (first number of the cell)
[2] = bait Srrm4, biological replicate 2 (second number of the cell)

Excerpt: By applying affinity purification coupled to mass-spectrometry (AP-MS), several interaction nSR100 partner proteins were detected that provide insight into mechanisms of post-translational regulation of nSR100 levels.

Molecule	AvgP (average of the SAINT scores)	MaxP (maximal SAINT score)	FoldChange between the prey Avg spectra of the bait and control purifications	AvgSpec (average number of spectra per replicate)	Spectra (number of spectra for the prey in the purification of the bait) [1]	Spectra (number of spectra for the prey in the purification of the bait) [2]	SpecSum
B1	0.97	0.99	25	2.5	2	3	5
B2	0.96	0.96	3.08	20	20|20	20|20	40
B3	0.97	0.99	25	2.5	2	3	5
B4	0.97	1	30	3	2	4	6
B5	0.97	1	30	3	2	4	6
